{"source": "paper PMC3410980", "about": "(Bioconjugate chemistry, 2012)", "key": {"[1]": {"assay": "hydrophobicity by reverse phase analytical HPLC", "type": "physicochemical", "settings": "retention time in reverse phase HPLC column (C18, 55 °C)"}, "[2]": {"settings": "tail vein injection, 0.25-24 h"}, "in vivo": {"assay": "in vivo", "settings": "Balb/c, mouse, total radioactivity"}}, "note": "Non-standard residues stand in square brackets, D forms with d. Residues, ends and D or L forms follow the SMILES beside them. *: point of attachment. DOTA = O=C(O)CN1CCN(CC(=O)O)CCN(CC(=O)*)CCN(CC(=O)O)CC1; Nspe = C[C@H](NCC(=O)O)c1ccccc1; Nphe = O=C(O)CNCc1ccccc1; Nlys = NCCCCNCC(=O)O", "data": [{"smiles": "NCCCCN(CC(=O)N(CC(=O)N(CC(=O)N(CCCCN)CC(=O)N(CC(=O)N(CC(=O)N(CCCCN)CC(=O)N(CC(=O)N(CC(=O)N(CCCCN)CC(=O)N(CC(=O)N(CC(N)=O)Cc1ccccc1)Cc1ccccc1)Cc1ccccc1)Cc1ccccc1)Cc1ccccc1)Cc1ccccc1)Cc1ccccc1)Cc1ccccc1)C(=O)CN1CCN(CC(=O)O)CCN(CC(=O)O)CCN(CC(=O)O)CC1", "note": "[Compound 2] ({DOTA}-[Nlys][Nphe][Nphe][Nlys][Nphe][Nphe][Nlys][Nphe][Nphe][Nlys][Nphe][Nphe]-NH2)", "values": [{"measurement": "hydrophobicity (tR in minutes)", "setting": "[1]", "result": 24.1, "unit": "min"}]}, {"smiles": "C[C@@H](c1ccccc1)N(CC(N)=O)C(=O)CN(CCCCN)C(=O)CN(C(=O)CN(C(=O)CN(CCCCN)C(=O)CN(C(=O)CN(C(=O)CN(CCCCN)C(=O)CN(C(=O)CN(C(=O)CN(CCCCN)C(=O)CN1CCN(CC(=O)O)CCN(CC(=O)O)CCN(CC(=O)O)CC1)[C@@H](C)c1ccccc1)[C@@H](C)c1ccccc1)[C@@H](C)c1ccccc1)[C@@H](C)c1ccccc1)[C@@H](C)c1ccccc1)[C@@H](C)c1ccccc1", "note": "[Compound 3] ({DOTA}-[Nlys][Nspe][Nspe][Nlys][Nspe][Nspe][Nlys][Nspe][Nspe][Nlys][Nspe]-NH2)", "values": [{"measurement": "hydrophobicity (tR in minutes)", "setting": "[1]", "result": 23.9, "unit": "min"}]}, {"smiles": "C[C@@H](c1ccccc1)N(CC(N)=O)C(=O)CN(C(=O)CN(CCCCN)C(=O)CN(C(=O)CN(C(=O)CN(CCCCN)C(=O)CN(C(=O)CN(C(=O)CN(CCCCN)C(=O)CN(C(=O)CN(C(=O)CN(CCCCN)C(=O)CN1CCN(CC(=O)O)CCN(CC(=O)O)CCN(CC(=O)O)CC1)[C@@H](C)c1ccccc1)[C@@H](C)c1ccccc1)[C@@H](C)c1ccccc1)[C@@H](C)c1ccccc1)[C@@H](C)c1ccccc1)[C@@H](C)c1ccccc1)[C@@H](C)c1ccccc1", "note": "[^64Cu-1, metal not drawn] ({DOTA}-[Nlys][Nspe][Nspe][Nlys][Nspe][Nspe][Nlys][Nspe][Nspe][Nlys][Nspe][Nspe]-NH2)", "values": [{"measurement": "excretion route, kidney activity and clearance seen by PET", "setting": "[2]", "result": "main excretion route is likely hepatic"}, {"measurement": "tissue uptake at 2 h", "setting": "in vivo; kidney, iv", "result": "14.4 ± 0.9", "unit": "%ID/g"}, {"measurement": "tissue uptake at 2 h", "setting": "in vivo; liver, iv", "result": "138 ± 13.4", "unit": "%ID/g"}, {"measurement": "tissue uptake at 24 h", "setting": "in vivo; liver, iv", "result": "95.6 ± 10.5", "unit": "%ID/g"}, {"measurement": "tissue uptake at 2 h", "setting": "in vivo; stomach, po", "result": "4.82 ± 1.44", "unit": "%ID/g"}, {"measurement": "tissue uptake at 24 h", "setting": "in vivo; stomach, po", "result": "0.54 ± 0.22", "unit": "%ID/g"}]}, {"smiles": "NCCCCN(CC(=O)N(CC(=O)N(CC(=O)N(CCCCN)CC(=O)N(CC(=O)N(CC(=O)N(CCCCN)CC(=O)N(CC(=O)N(CC(=O)N(CCCCN)CC(=O)N(CC(=O)N(CC(N)=O)Cc1ccccc1)Cc1ccccc1)Cc1ccccc1)Cc1ccccc1)Cc1ccccc1)Cc1ccccc1)Cc1ccccc1)Cc1ccccc1)C(=O)CN1CCN(CC(=O)O)CCN(CC(=O)O)CCN(CC(=O)O)CC1", "note": "[^64Cu-2, metal not drawn] ({DOTA}-[Nlys][Nphe][Nphe][Nlys][Nphe][Nphe][Nlys][Nphe][Nphe][Nlys][Nphe][Nphe]-NH2)", "values": [{"measurement": "excretion route, kidney activity and clearance seen by PET", "setting": "[2]", "result": "main excretion route is likely hepatic"}, {"measurement": "tissue uptake at 2 h", "setting": "in vivo; kidney, iv", "result": "12.6 ± 2.3", "unit": "%ID/g"}, {"measurement": "tissue uptake at 2 h", "setting": "in vivo; liver, iv", "result": "125 ± 16.8", "unit": "%ID/g"}, {"measurement": "tissue uptake at 24 h", "setting": "in vivo; liver, iv", "result": "72.2 ± 11.3", "unit": "%ID/g"}]}, {"smiles": "C[C@@H](c1ccccc1)N(CC(N)=O)C(=O)CN(CCCCN)C(=O)CN(C(=O)CN(C(=O)CN(CCCCN)C(=O)CN(C(=O)CN(C(=O)CN(CCCCN)C(=O)CN(C(=O)CN(C(=O)CN(CCCCN)C(=O)CN1CCN(CC(=O)O)CCN(CC(=O)O)CCN(CC(=O)O)CC1)[C@@H](C)c1ccccc1)[C@@H](C)c1ccccc1)[C@@H](C)c1ccccc1)[C@@H](C)c1ccccc1)[C@@H](C)c1ccccc1)[C@@H](C)c1ccccc1", "note": "[^64Cu-3, metal not drawn] ({DOTA}-[Nlys][Nspe][Nspe][Nlys][Nspe][Nspe][Nlys][Nspe][Nspe][Nlys][Nspe]-NH2)", "values": [{"measurement": "excretion route, kidney activity and clearance seen by PET", "setting": "[2]", "result": "highest kidney activity of all three peptoids"}, {"measurement": "tissue uptake at 2 h", "setting": "in vivo; kidney, iv", "result": "~31.2", "unit": "%ID/g"}, {"measurement": "tissue uptake at 24 h", "setting": "in vivo; kidney, iv", "result": "19.3 ± 2.6", "unit": "%ID/g"}, {"measurement": "tissue uptake at 2 h", "setting": "in vivo; liver, iv", "result": "56.7 ± 1.8", "unit": "%ID/g"}, {"measurement": "tissue uptake at 24 h", "setting": "in vivo; liver, iv", "result": "47.3 ± 4.4", "unit": "%ID/g"}, {"measurement": "oral absorption / bioavailability", "setting": "administered orally", "result": "poor bioavailability"}, {"measurement": "lower liver uptake relative to ^64Cu-1", "setting": "intravenous", "result": "more than 50%"}]}]}
